Data taken from patent US20200270321A1.

Experiments:
[1] = target: mouse 4-1BB on activated mouse splenocytes (mouse) (UniProt P20334); test: flow cytometry on activated mouse splenocytes, gate CD8+ T cells; PE anti-human IgG Fc-gamma F(ab')2; median fluorescence, baseline corrected
[2] = target: mouse 4-1BB on activated mouse splenocytes (mouse) (UniProt P20334); test: flow cytometry on activated mouse splenocytes, gate CD4+ T cells; PE anti-human IgG Fc-gamma F(ab')2; median fluorescence, baseline corrected

Sequence of mouse 4-1BB on activated mouse splenocytes (mouse) (P20334 24-256): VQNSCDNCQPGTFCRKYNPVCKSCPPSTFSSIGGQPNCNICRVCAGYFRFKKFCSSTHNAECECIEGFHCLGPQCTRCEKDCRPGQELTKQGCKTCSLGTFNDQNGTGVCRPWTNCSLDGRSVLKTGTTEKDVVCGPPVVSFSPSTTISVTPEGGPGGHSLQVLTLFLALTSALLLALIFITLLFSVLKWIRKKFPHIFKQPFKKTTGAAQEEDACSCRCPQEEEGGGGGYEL

EC50 (read off the curve) [1]: 0.1 nM
EC50 (read off the curve) [2]: 0.09 nM
Substance: anti-mouse Lob12.3 huIgG1 (antibody)
